Results published in patent publication US20260209293A1 (Novo Nordisk, published 2026).
*1 amine or outer side, *2 acyl side, *3 side chain or, on linkers, in order; H or OH if unused. The star is where a group is joined. C20 diacid = O=C(O)CCCCCCCCCCCCCCCCCCC(=O)*; C18 diacid = O=C(O)CCCCCCCCCCCCCCCCC(=O)*; γGlu = O=C(O)[C@H](CCC(=O)[*:2])N[*:1]

T1: human amylin-3(a) receptor (human, UniProt P30988 25-474; O60896 24-148)
T1 sequence (looked up) 1: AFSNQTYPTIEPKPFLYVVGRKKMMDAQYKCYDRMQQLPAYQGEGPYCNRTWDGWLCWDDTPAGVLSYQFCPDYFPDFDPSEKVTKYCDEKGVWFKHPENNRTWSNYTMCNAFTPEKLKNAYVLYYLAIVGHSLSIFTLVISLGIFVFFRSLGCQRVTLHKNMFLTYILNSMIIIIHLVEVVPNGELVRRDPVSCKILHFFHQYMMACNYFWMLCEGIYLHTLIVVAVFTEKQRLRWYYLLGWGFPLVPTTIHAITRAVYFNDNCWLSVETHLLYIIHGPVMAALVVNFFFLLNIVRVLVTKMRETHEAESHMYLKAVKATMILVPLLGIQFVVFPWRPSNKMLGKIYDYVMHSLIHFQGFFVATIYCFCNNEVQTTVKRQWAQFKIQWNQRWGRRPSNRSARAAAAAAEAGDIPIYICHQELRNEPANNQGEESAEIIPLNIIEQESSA
T1 sequence (looked up) 2: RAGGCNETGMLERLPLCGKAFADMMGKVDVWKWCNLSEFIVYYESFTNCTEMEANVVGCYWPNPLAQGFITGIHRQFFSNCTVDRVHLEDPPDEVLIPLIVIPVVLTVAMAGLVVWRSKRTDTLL

T2: human calcitonin receptor (a) (human, UniProt P30988 25-474)
T2 sequence (looked up): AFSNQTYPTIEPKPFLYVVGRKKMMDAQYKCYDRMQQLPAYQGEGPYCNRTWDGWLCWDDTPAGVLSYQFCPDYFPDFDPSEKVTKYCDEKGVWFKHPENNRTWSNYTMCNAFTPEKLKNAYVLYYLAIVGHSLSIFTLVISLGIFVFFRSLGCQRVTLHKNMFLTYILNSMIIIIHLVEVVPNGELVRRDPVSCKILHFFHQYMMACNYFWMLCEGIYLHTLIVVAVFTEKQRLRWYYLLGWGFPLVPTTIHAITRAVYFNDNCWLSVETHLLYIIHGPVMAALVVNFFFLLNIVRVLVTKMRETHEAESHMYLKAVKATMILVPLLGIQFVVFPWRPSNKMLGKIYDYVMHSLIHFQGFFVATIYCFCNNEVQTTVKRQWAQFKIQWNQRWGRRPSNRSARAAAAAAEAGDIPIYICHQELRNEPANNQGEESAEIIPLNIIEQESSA


Legend:
[1] = target: T1, human amylin-3(a) receptor; test: cell-based or functional assay
[2] = target: T2, human calcitonin receptor (a); test: cell-based or functional assay

| Binder | hAmyR3 potency, EC50 (pM); CRE-luciferase reporter in BHK cells [1] | hCalcR potency, EC50 (pM); CRE-luciferase reporter in BHK cells [2] |
| --- | --- | --- |
| {C18 diacid-γGlu}-AGSLSTAQTQRLAEFLHHSSDPFGAIPSSTDVGPDTP-NH2 (SMILES CC[C@H](C)[C@H](NC(=O)[C@H](C)NC(=O)CNC(=O)[C@H](Cc1ccccc1)NC(=O)[C@@H]1CCCN1C(=O)[C@H](CC(=O)O)NC(=O)[C@H](CO)NC(=O)[C@H](CO)NC(=O)[C@H](Cc1c[nH]cn1)NC(=O)[C@H](Cc1c[nH]cn1)NC(=O)[C@H](CC(C)C)NC(=O)[C@H](Cc1ccccc1)NC(=O)[C@H](CCC(=O)O)NC(=O)[C@H](C)NC(=O)[C@H](CC(C)C)NC(=O)[C@H](CCCNC(=N)N)NC(=O)[C@H](CCC(N)=O)NC(=O)[C@@H](NC(=O)[C@H](CCC(N)=O)NC(=O)[C@H](C)NC(=O)[C@@H](NC(=O)[C@H](CO)NC(=O)[C@H](CC(C)C)NC(=O)[C@H](CO)NC(=O)CNC(=O)[C@H](C)NC(=O)CC[C@H](NC(=O)CCCCCCCCCCCCCCCCC(=O)O)C(=O)O)[C@@H](C)O)[C@@H](C)O)C(=O)N1CCC[C@H]1C(=O)N[C@@H](CO)C(=O)N[C@@H](CO)C(=O)N[C@H](C(=O)N[C@@H](CC(=O)O)C(=O)N[C@H](C(=O)NCC(=O)N1CCC[C@H]1C(=O)N[C@@H](CC(=O)O)C(=O)N[C@H](C(=O)N1CCC[C@H]1C(N)=O)[C@@H](C)O)C(C)C)[C@@H](C)O) | 1.44 pM | 1.49 pM |
| {C20 diacid-γGlu}-ASHLSTAQTARLAEFLHHSSDNFGPILPPTDVGSNTP-NH2 (SMILES CC[C@H](C)[C@H](NC(=O)[C@@H]1CCCN1C(=O)CNC(=O)[C@H](Cc1ccccc1)NC(=O)[C@H](CC(N)=O)NC(=O)[C@H](CC(=O)O)NC(=O)[C@H](CO)NC(=O)[C@H](CO)NC(=O)[C@H](Cc1c[nH]cn1)NC(=O)[C@H](Cc1c[nH]cn1)NC(=O)[C@H](CC(C)C)NC(=O)[C@H](Cc1ccccc1)NC(=O)[C@H](CCC(=O)O)NC(=O)[C@H](C)NC(=O)[C@H](CC(C)C)NC(=O)[C@H](CCCNC(=N)N)NC(=O)[C@H](C)NC(=O)[C@@H](NC(=O)[C@H](CCC(N)=O)NC(=O)[C@H](C)NC(=O)[C@@H](NC(=O)[C@H](CO)NC(=O)[C@H](CC(C)C)NC(=O)[C@H](Cc1c[nH]cn1)NC(=O)[C@H](CO)NC(=O)[C@H](C)NC(=O)CC[C@H](NC(=O)CCCCCCCCCCCCCCCCCCC(=O)O)C(=O)O)[C@@H](C)O)[C@@H](C)O)C(=O)N[C@@H](CC(C)C)C(=O)N1CCC[C@H]1C(=O)N1CCC[C@H]1C(=O)N[C@H](C(=O)N[C@@H](CC(=O)O)C(=O)N[C@H](C(=O)NCC(=O)N[C@@H](CO)C(=O)N[C@@H](CC(N)=O)C(=O)N[C@H](C(=O)N1CCC[C@H]1C(N)=O)[C@@H](C)O)C(C)C)[C@@H](C)O) | 0.77 pM | 1.31 pM |
| {C18 diacid-γGlu}-ASHLSTAQTQRLAEFLHHSSDPFGAIPSSTDVGPDTP-NH2 (SMILES CC[C@H](C)[C@H](NC(=O)[C@H](C)NC(=O)CNC(=O)[C@H](Cc1ccccc1)NC(=O)[C@@H]1CCCN1C(=O)[C@H](CC(=O)O)NC(=O)[C@H](CO)NC(=O)[C@H](CO)NC(=O)[C@H](Cc1c[nH]cn1)NC(=O)[C@H](Cc1c[nH]cn1)NC(=O)[C@H](CC(C)C)NC(=O)[C@H](Cc1ccccc1)NC(=O)[C@H](CCC(=O)O)NC(=O)[C@H](C)NC(=O)[C@H](CC(C)C)NC(=O)[C@H](CCCNC(=N)N)NC(=O)[C@H](CCC(N)=O)NC(=O)[C@@H](NC(=O)[C@H](CCC(N)=O)NC(=O)[C@H](C)NC(=O)[C@@H](NC(=O)[C@H](CO)NC(=O)[C@H](CC(C)C)NC(=O)[C@H](Cc1c[nH]cn1)NC(=O)[C@H](CO)NC(=O)[C@H](C)NC(=O)CC[C@H](NC(=O)CCCCCCCCCCCCCCCCC(=O)O)C(=O)O)[C@@H](C)O)[C@@H](C)O)C(=O)N1CCC[C@H]1C(=O)N[C@@H](CO)C(=O)N[C@@H](CO)C(=O)N[C@H](C(=O)N[C@@H](CC(=O)O)C(=O)N[C@H](C(=O)NCC(=O)N1CCC[C@H]1C(=O)N[C@@H](CC(=O)O)C(=O)N[C@H](C(=O)N1CCC[C@H]1C(N)=O)[C@@H](C)O)C(C)C)[C@@H](C)O) | 1.5 pM | 1.44 pM |
| {C20 diacid-γGlu}-AGHLSTAQTQRLAEFLHHSSDPFGAIPSSTDVGPDTP-NH2 (SMILES CC[C@H](C)[C@H](NC(=O)[C@H](C)NC(=O)CNC(=O)[C@H](Cc1ccccc1)NC(=O)[C@@H]1CCCN1C(=O)[C@H](CC(=O)O)NC(=O)[C@H](CO)NC(=O)[C@H](CO)NC(=O)[C@H](Cc1c[nH]cn1)NC(=O)[C@H](Cc1c[nH]cn1)NC(=O)[C@H](CC(C)C)NC(=O)[C@H](Cc1ccccc1)NC(=O)[C@H](CCC(=O)O)NC(=O)[C@H](C)NC(=O)[C@H](CC(C)C)NC(=O)[C@H](CCCNC(=N)N)NC(=O)[C@H](CCC(N)=O)NC(=O)[C@@H](NC(=O)[C@H](CCC(N)=O)NC(=O)[C@H](C)NC(=O)[C@@H](NC(=O)[C@H](CO)NC(=O)[C@H](CC(C)C)NC(=O)[C@H](Cc1c[nH]cn1)NC(=O)CNC(=O)[C@H](C)NC(=O)CC[C@H](NC(=O)CCCCCCCCCCCCCCCCCCC(=O)O)C(=O)O)[C@@H](C)O)[C@@H](C)O)C(=O)N1CCC[C@H]1C(=O)N[C@@H](CO)C(=O)N[C@@H](CO)C(=O)N[C@H](C(=O)N[C@@H](CC(=O)O)C(=O)N[C@H](C(=O)NCC(=O)N1CCC[C@H]1C(=O)N[C@@H](CC(=O)O)C(=O)N[C@H](C(=O)N1CCC[C@H]1C(N)=O)[C@@H](C)O)C(C)C)[C@@H](C)O) | 1.68 pM | 1.81 pM |
| {C20 diacid-γGlu}-ASHLSTAQTQRLAEFLHHSSDPFGAIPSSTDVGPDTP-NH2 (SMILES CC[C@H](C)[C@H](NC(=O)[C@H](C)NC(=O)CNC(=O)[C@H](Cc1ccccc1)NC(=O)[C@@H]1CCCN1C(=O)[C@H](CC(=O)O)NC(=O)[C@H](CO)NC(=O)[C@H](CO)NC(=O)[C@H](Cc1c[nH]cn1)NC(=O)[C@H](Cc1c[nH]cn1)NC(=O)[C@H](CC(C)C)NC(=O)[C@H](Cc1ccccc1)NC(=O)[C@H](CCC(=O)O)NC(=O)[C@H](C)NC(=O)[C@H](CC(C)C)NC(=O)[C@H](CCCNC(=N)N)NC(=O)[C@H](CCC(N)=O)NC(=O)[C@@H](NC(=O)[C@H](CCC(N)=O)NC(=O)[C@H](C)NC(=O)[C@@H](NC(=O)[C@H](CO)NC(=O)[C@H](CC(C)C)NC(=O)[C@H](Cc1c[nH]cn1)NC(=O)[C@H](CO)NC(=O)[C@H](C)NC(=O)CC[C@H](NC(=O)CCCCCCCCCCCCCCCCCCC(=O)O)C(=O)O)[C@@H](C)O)[C@@H](C)O)C(=O)N1CCC[C@H]1C(=O)N[C@@H](CO)C(=O)N[C@@H](CO)C(=O)N[C@H](C(=O)N[C@@H](CC(=O)O)C(=O)N[C@H](C(=O)NCC(=O)N1CCC[C@H]1C(=O)N[C@@H](CC(=O)O)C(=O)N[C@H](C(=O)N1CCC[C@H]1C(N)=O)[C@@H](C)O)C(C)C)[C@@H](C)O) | 0.86 pM | 1.25 pM |
| {C18 diacid-γGlu-γGlu}-ASHLSTAQTQRLAEFLHHSSDPFGAIPSSTDVGPDTP-NH2 (SMILES CC[C@H](C)[C@H](NC(=O)[C@H](C)NC(=O)CNC(=O)[C@H](Cc1ccccc1)NC(=O)[C@@H]1CCCN1C(=O)[C@H](CC(=O)O)NC(=O)[C@H](CO)NC(=O)[C@H](CO)NC(=O)[C@H](Cc1c[nH]cn1)NC(=O)[C@H](Cc1c[nH]cn1)NC(=O)[C@H](CC(C)C)NC(=O)[C@H](Cc1ccccc1)NC(=O)[C@H](CCC(=O)O)NC(=O)[C@H](C)NC(=O)[C@H](CC(C)C)NC(=O)[C@H](CCCNC(=N)N)NC(=O)[C@H](CCC(N)=O)NC(=O)[C@@H](NC(=O)[C@H](CCC(N)=O)NC(=O)[C@H](C)NC(=O)[C@@H](NC(=O)[C@H](CO)NC(=O)[C@H](CC(C)C)NC(=O)[C@H](Cc1c[nH]cn1)NC(=O)[C@H](CO)NC(=O)[C@H](C)NC(=O)CC[C@H](NC(=O)CC[C@H](NC(=O)CCCCCCCCCCCCCCCCC(=O)O)C(=O)O)C(=O)O)[C@@H](C)O)[C@@H](C)O)C(=O)N1CCC[C@H]1C(=O)N[C@@H](CO)C(=O)N[C@@H](CO)C(=O)N[C@H](C(=O)N[C@@H](CC(=O)O)C(=O)N[C@H](C(=O)NCC(=O)N1CCC[C@H]1C(=O)N[C@@H](CC(=O)O)C(=O)N[C@H](C(=O)N1CCC[C@H]1C(N)=O)[C@@H](C)O)C(C)C)[C@@H](C)O) | 2.18 pM | 1.68 pM |
